Measured values published in patent publication US20240327804A1, “CONJUGATES AND METHODS OF USE THEREOF” (Regents of the University of Minnesota, priority 2023, published 2024).

What was measured:
CD133+ HT29-R cells = assay: Binding of CSANs to CD133+ HT29-R cells by flow cytometry; settings: fluorescein-labeled CSANs
Method: The Bangs beads (Bangs Laboratories, Cat: 815A) were collected and resuspended in PBS, and then stained with the fluorescently labeled antibody that detects the corresponding cell surface receptor (anti-EGFR-BV421, Biolegend, Cat: 352911; anti-HER2-BV421, Biolegend, Cat: 324420; anti-EpCAM-AF647, Biolegend, Cat: 118211) at 4° C. for >30 min, followed by wash steps. 100,000 of the cancer cells were collected and stained with the corresponding antibody at 4° C. for >30 min, followed by wash steps. The cells and beads were analyzed by flow cytometry. The calibration curve was generated based on the MFI of the beads and the corresponding antibody binding capacity of the beads. The receptor number was calculated based on the MFI of the cells stained with the antibody and the previously generated calibration curve. […]
The binding specificity of the CSANs to the corresponding cellular receptors was studied by flow cytometry. […] The cells were then pelleted, washed, and resuspended in 0.5 mL of cold DPBS and analyzed using an LSR II flow cytometer (BD Biosciences) at the University Flow Cytometry Resource (UFCR). […] The modified cells were then resuspended in 0.5 mL of cold DPBS and analyzed using an LSR II flow cytometer (BD Biosciences) at the University Flow Cytometry Resource (UFCR).

[1] = biological target: T1, epithelial cell adhesion molecule (EpCAM) on HT29-R cells (human, UniProt P16422 24-314); assay: flow cytometry, 0.5 µM fluorescein-labeled CSANs on HT29-R (EpCAM+) cells, 1 h at 4° C.
T1 construct: whole, on cells
T1 sequence (looked up): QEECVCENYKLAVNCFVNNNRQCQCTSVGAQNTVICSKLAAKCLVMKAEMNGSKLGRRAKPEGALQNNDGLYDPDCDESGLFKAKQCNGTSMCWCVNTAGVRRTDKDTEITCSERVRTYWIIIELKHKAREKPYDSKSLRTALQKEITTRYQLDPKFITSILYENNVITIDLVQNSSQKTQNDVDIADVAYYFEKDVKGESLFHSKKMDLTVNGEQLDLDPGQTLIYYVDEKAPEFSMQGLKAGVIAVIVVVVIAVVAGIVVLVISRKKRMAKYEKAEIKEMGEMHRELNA
Method: (§1) The binding specificity of the CSANs to the corresponding cellular receptors was studied by flow cytometry. A431-R cells were chosen as the EGFR⁺ cell line; SK-BR-3-R cells were chosen as the HER2⁺ cell line; HT-29-R cells were chosen as the EpCAM⁺ cell line; HT29-R cells were chosen as the CD133⁺ cell line. The cells were harvested and washed with DPBS buffer (Gibco, Cat: 14190144), and aliquots of […] were then resuspended in 100 μL of DPBS solutions containing 0.5 μM of fluorescein-labeled CSANs and incubated for 1 h at 4° C. The cells were then pelleted, washed, and resuspended in 0.5 mL of cold DPBS and analyzed using an LSR II flow cytometer (BD Biosciences) at the University Flow Cytometry Resource (UFCR). For the cell surface modification with farnesylated CSANs, the sender cells were collected from cell culture, pelleted at 350 g for 5 min, and washed with 1 mL DPBS. Aliquots of 10⁵ cells were then incubated in 100 μL of DPBS solutions containing the desired concentrations of fluorescein-labeled farnesylated CSANs for at least 1 h at room temperature with rotation and washed twice with 1 mL cold DPBS to remove unbound CSANs. The modified cells were then resuspended in 0.5 mL of cold DPBS and analyzed using an LSR II flow cytometer (BD Biosciences) at the University Flow Cytometry Resource (UFCR).

[2] = biological target: T2, epidermal growth factor receptor (EGFR) on A431-R / MDA-MB-231-R cells (human, UniProt P00533 25-1210); assay: flow cytometry, fluorescein-labeled CSANs on A431-R cells, 1 h at 4° C.
T2 construct: whole, on cells
Method: as §1

[3] = biological target: T1, epithelial cell adhesion molecule …; assay: flow cytometry, fluorescein-labeled CSANs on HT29-R cells, 1 h at 4° C.
Method: as §1

[4] = biological target: T3, human epidermal growth factor receptor 2 (HER2) on SK-BR-3-R cells (human, UniProt P04626 23-1255); assay: flow cytometry, fluorescein-labeled CSANs on SK-BR-3-R cells, 1 h at 4° C.
T3 construct: whole, on cells
Method: as §1

[5] = system: receptor expressing target cells (A431-R, SK-BR-3-R, HT29-R); assay: Binding specificity of CSANs to cellular receptors by flow cytometry; settings: unfarnesylated fluorescein-labeled CSANs, 0.5 μM, 1 h, 4° C.
Method: as §1, with “EGFR^+” for “EGFR⁺”, “HER2^+” for “HER2⁺”, “EpCAM^+” for “EpCAM⁺”, “CD133^+” for “CD133⁺”, “10^5” for “10⁵”

B1: αCD133-scFv-DHFR^2 CSANs: fluorescein-labeled CSANs from αCD133-scFv-DHFR^2 protein (protein)
chain: MDIVLSQSPAIMSASPGEKVTISCSASSSVSYMYWYQQKPGSSPKPWIYRTSNLASGVPARFSGSGSGTSYSLTISSMEAEDAATYYCQQYHSYPPTFGAGTKLELKSSGGGGSGGGGGGSSRSSLEVKLVESGPELKKPGETVKISCKASGYTFTDYSMHWVNQAPGKGLKWMGWINTETGEPSYADDFKGRFAFSLETSASTAYLQINNLKNEDTATYFCATDYGDYFDYWGQGTTLTVSSELGGSGGGSGGGSGGMISLIAALAVDRVIGMENAMPWNLPADLAWFKRNTLNKPVIMGRHTWESIGRPLPGRKNIILSSQPGTDDRVTWVKSVDEAIAAAGDVPEIMVIGGGRVYEQFLPKAQKLYLTHIDAEVEGDTHFPDYEPDDWESVFSEFHDADAQNSHSYSFEILERRGMISLIAALAVDRVIGMENAMPWNLPADLAWFKRNTLNKPVIMGRHTWESIGRPLPGRKNIILSSQPGTDDRVTWVKSVDEAIAAAGDVPEIMVIGGGRVYEQFLPKAQKLYLTHIDAEVEGDTHFPDYEPDDWESVFSEFHDADAQNSHSYSFEILERRGGSGGGSGGGSGGDYKDDDDK
**Q.** Which “binding to HT29-R cells” value (CD133+ HT29-R cells) does the source give for B1 here?
**A.** specifically bind

B2: unfarnesylated αEpCAM-Fn3 CSANs (αEpCAM-Fn3-DHFR^2-CVIA oligomerized by bisMTX) (designed binder)
chain: MDYKDDDDKASSSDSPRNLEVTNATPNSLTISWDNSNYASYYRITYGETGGNSPSQELTVPGSTYNATISGLKPGQDYIITVYAVTYRDNYSYSNLISINYRSEIDKPSQGSGGSGGGGSGGGGSGGGGSGGGGSGGGGSGGGGSGGGGSGGGGSGGELGGISLIAALAVDRVIGMENAMPWNLPADLAWFKRNTLNKPVIMGRHTWESIGRPLPGRKNIILSSQPGTDDRVTWVKSVDEAIAAAGDVPEIMVIGGGRVYEQFLPKAQKLYLTHIDAEVEGDTHFPDYEPDDWESVFSEFHDADAQNSHSYSFEILERRGGISLIAALAVDRVIGMENAMPWNLPADLAWFKRNTLNKPVIMGRHTWESIGRPLPGRKNIILSSQPGTDDRVTWVKSVDEAIAAAGDVPEIMVIGGGRVYEQFLPKAQKLYLTHIDAEVEGDTHFPDYEPDDWESVFSEFHDADAQNSHSYSFEILERRGGSGGGSGGHHHHHHGGSGGSGGKKKKKKTCVIA
modifications: Non-specific NHS-fluorescein label on amines; monomers joined non-covalently into a predominantly octameric ring by bisMTX; the letters give one monomer.
notes: Fn3-DHFR^2 fusion nanoring formed with bisMTX; 'predominantly octameric'; also called anti-EpCAM-C5-Fn-1DD-CVIA
**Q.** Does B2 bind [1]?
**A.** binds

B3: non-targeting DHFR^2-CVIA CSANs (other)
chain: GISLIAALAVDRVIGMENAMPWNLPADLAWFKRNTLNKPVIMGRHTWESIGRPLPGRKNIILSSQPGTDDRVTWVKSVDEAIAAAGDVPEIMVIGGGRVYEQFLPKAQKLYLTHIDAEVEGDTHFPDYEPDDWESVFSEFHDADAQNSHSYSFEILERRGGISLIAALAVDRVIGMENAMPWNLPADLAWFKRNTLNKPVIMGRHTWESIGRPLPGRKNIILSSQPGTDDRVTWVKSVDEAIAAAGDVPEIMVIGGGRVYEQFLPKAQKLYLTHIDAEVEGDTHFPDYEPDDWESVFSEFHDADAQNSHSYSFEILERRGGSGGSGGDYKDDDDKGGSGGSGGKKKKKKTCVIA
modifications: Non-specific NHS-fluorescein label on amines; monomers joined non-covalently into a predominantly octameric ring by bisMTX; the letters give one monomer.
notes: Control nanoring without targeting domain, unfarnesylated; 'predominantly octameric'
**Q.** What does the source list for B3?
**A.** binding result [2]: no binding (tested: 0.5 µM); binding result [3]: no binding (tested: 0.5 µM); binding result [4]: no binding (tested: 0.5 µM)

B4: DHFR^2-CVIA CSANs: non-targeting unfarnesylated control CSANs from DHFR^2-CVIA protein (protein)
chain: GISLIAALAVDRVIGMENAMPWNLPADLAWFKRNTLNKPVIMGRHTWESIGRPLPGRKNIILSSQPGTDDRVTWVKSVDEAIAAAGDVPEIMVIGGGRVYEQFLPKAQKLYLTHIDAEVEGDTHFPDYEPDDWESVFSEFHDADAQNSHSYSFEILERRGGISLIAALAVDRVIGMENAMPWNLPADLAWFKRNTLNKPVIMGRHTWESIGRPLPGRKNIILSSQPGTDDRVTWVKSVDEAIAAAGDVPEIMVIGGGRVYEQFLPKAQKLYLTHIDAEVEGDTHFPDYEPDDWESVFSEFHDADAQNSHSYSFEILERRGGSGGSGGDYKDDDDKGGSGGSGGKKKKKKTCVIA
**Q.** Which “binding to receptor expressing target cells” value [5] does the source give for B4 here?
**A.** no observable binding
